# In patent publication US20250296984A1, “THERAPEUTIC AND DIAGNOSTIC AGENTS AND USES THEREOF” (priority 2022, published 2025):
# T1: human proteins on HuProt Human Proteome Microarray (Homo sapiens, UniProt Q9UK22)
# T1 construct: purchased CDI Labs (HuProt); host or cells: yeast S. cerevisiae
# T1 sequence (Q9UK22 1-296): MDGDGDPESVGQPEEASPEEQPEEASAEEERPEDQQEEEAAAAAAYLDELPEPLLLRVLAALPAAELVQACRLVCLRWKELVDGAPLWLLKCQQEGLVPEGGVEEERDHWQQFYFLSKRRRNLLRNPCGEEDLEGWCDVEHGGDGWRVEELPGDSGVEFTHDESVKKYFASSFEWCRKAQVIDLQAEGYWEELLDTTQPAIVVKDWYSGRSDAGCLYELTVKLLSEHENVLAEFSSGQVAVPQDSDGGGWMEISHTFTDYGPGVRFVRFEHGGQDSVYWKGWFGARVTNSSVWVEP
# Tests used:
# [1] = target: T1, human proteins on HuProt Human Proteome Microarray; assay: HuProt Human Proteome Microarray, off-target human proteins; format: binding; design: key to Z Score: Z = (F635 − mean F635 of all spots) / SD; average of duplicate spots; key to S Score: difference between this protein's Z score and the next-ranked protein's; details: Protein: FBXO2
# Excerpt: (§1) The HuProt™ Human Proteome Microarray provides the largest number of unique, full-length, individually purified human proteins on a single microscope slide. It provides >21,000 unique human proteins, isoform variants, and protein fragments—covering 16,794 unique genes. This includes 15,889 of the 19,613 canonical human proteins described in the Human Protein Atlas, with broad coverage across protein subclasses. This allows thousands of interactions to be profiled in a high-throughput manner. The full-length recombinant proteins are expressed in the yeast S. cerevisiae, purified, and printed on glass slides in duplicate along with a set of control proteins (GST, BSA, histones, IgG, etc.). The full list of the different proteins included in the HuProt™ Human Proteome Microarray as used in this Example is provided as “List B” in the Research Disclosures publication (ISSN 0374-4353, Questel Ireland Ltd) with database numbers 707018, 707019 and 707020, each entitled “Large scale protein arrange target protein identities” and each digitally published on 27 Jan. 2023, the contents of each of which are incorporated herein by reference in their entirety, fo the purposes of the disclosure of the proteins defined by “List B”. “List B” begins in Research Disclosures publication 707018, is continued in Research Disclosures publication 707019, and concludes Research Disclosures publications 707020, and so the three publications are to be read consecutively as a single disclosure of the “List B” proteins. The HuProt™ microarray is not restricted to a particular type of surface coating, although the default is glass coated with ultrathin nitrocellulose film for the non-covalent, yet irreversible, capture of active proteins to the surface.
# (§2) Samples of humanised 7B1F3 and mouse 7B1F3 antibodies were analysed for binding specificities on HuProt™ human proteome arrays. A peptide with the sequence TDVLNQSKPVTL (“Peptide 3”) was added to the arrays at 0.1 mg/ml as a control.
# (§3) After blocking, the arrays were probed with the antibody samples (0.1 μg/ml) at room temperature for 1 hour. Then the arrays were washed with TBST for 10 min×3 and probed with Alexa647-anti-human IgG Fc or Alexa647-anti-mouse IgG secondary antibodies under conditions optimized by CDI Labs for signal detection.
# (§4) • Non-specific hits that directly bind to the secondary antibodies were eliminated from the analysis of the samples. • CDI software was used to quantify the specificity of each individual sample to specific proteins on the array based on Z Scores. • Z score is the average Z score of the duplicate spots of a given protein (each protein is printed in duplicate on a HuProt™ array). The Z score of each spot on a given array is calculated according to the algorithm below:
# (§5) Z=[F635−F635(avg)]/F635(std) • F635(avg) and F635(std) are the average and standard deviation of the F635 values of all spots on the array, respectively. • S score is the difference of the Z Scores of a given protein and the one ranked next to it. If the S score of the top hit is >3, the antibody is considered to be highly specific for the top hit. • F635 is the average foreground signal intensity of 2 replicate spots of a given protein in the detection channel (635 nm). • B635 is the average background signal intensity of 2 replicate spots of a given protein in the detection channel (635 nm).
# [2] = test system: human proteins on HuProt Human Proteome Microarray; assay: as above; format: binding; design: key to Z Score: Z = (F635 − mean F635 of all spots) / SD; average of duplicate spots; key to S Score: difference between this protein's Z score and the next-ranked protein's
# Excerpt: as §1, §2, §3, §4, §5
# [3] = test system: human primary adrenal cortical, kidney epithelial, cardiac microvascular endothelial, liver epithelial and vein smooth muscle cells; assay: Flow cytometry off-target surface binding to human primary cells; details: all five cell types, PE-labelled antibody
# Procedure: FIG. 19. A. Flowcytometry analysis with the 28-13-5G6-1D3-PE antibody were conducted on various human primary cells to exclude general off-target binding to the surface of these cell types. The following cell lines were studied: human primary adrenal cortical cells, human primary kidney epithelial cells, human primary cardiac microvascular endothelial cells, human primary liver epithelial cells and human primary vein smooth muscle cells. […] B. Original human primary cardiac cells were not available, and human cardiac tissue samples were therefore studied for staining of 13-5G6-1D3 by immunohistochemistry. […] If there were HCMV infections present in the human heart, they were always of productive infection type. […] The positive 13-5G6-1D3 and HCMV ISH results are marked with arrows in the figure. A colour version of FIG. 19 is also provided.
# pancreatic tissue = assay: IHC on pancreatic tissues; design: species or system human
# Excerpt: FIG. 20. Some pancreatic tissues were studied to exclude general off-target binding of the 28-13-5G6-1D3 to this tissue type. […] The HCMV ISH is negative indicating absence of viral HCMV DNA in the normal pancreatic tissue sample. […] Thus, the same sample is positive for both HCMV proteins US28 and IE and HCMV DNA but negative for the negative control IgG indicating specific antibody binding. The US28 protein staining is cytoplasmic as expected, the IE protein is mostly located in the cell nucleus as expected since it is a nuclear protein. […] A colour version of FIG. 20 is also provided.
molecule,measurement,setting,value
"7B1F3: mouse IgG1 kappa antibody against US28 ECD1 Peptide-N; VH SEQ ID NO: 211, VL SEQ ID NO: 213 (antibody, V domains shown, Mature form of VH sequence of 7B1F3, without the leader sequence; Mature form of VL sequence of 7B1F3, without the leader sequence) VH: EVQLQQSGAELAKPGASVKMSCKASGYTFTNYWMHWVKQRPGQGLEWIGYVNPRTGYTEYNQKFKDKATLTADKSSRTAYMQLSSLTSEDSAVYSCARILNGTGFAYWGQGTLVTVSA VL: DIVLTQSPSSLTVSVGEKFTMSCKSSQSLLYSSNQKNYLAWYQQKPGQSPKLLIYWASTRESGVPDRFTGSGSGTDFTLAISSVKPEDLAIYYCQQYYSFPLTFGAGTKLEIK",F635,[1],4683
same,Z Score,[1],13.486
same,F635,[2]; Protein: AGAP2,10020.5
same,S Score,[2]; Protein: AGAP2,15.511
same,Z Score,[2]; Protein: AGAP2,28.997
same,S Score,[2]; Protein: BYSL,0.378
same,S Score,[2]; Protein: CCDC97,0.353
same,F635,[2]; Protein: DNAJB2,3312
same,S Score,[2]; Protein: DNAJB2,0.235
same,Z Score,[2]; Protein: DNAJB2,9.502
same,F635,[2]; Protein: EXD2,2701.5
same,S Score,[2]; Protein: EXD2,1.271
same,Z Score,[2]; Protein: EXD2,7.728
same,S Score,[2]; Protein: FBXO2,2.911
same,S Score,[2]; Protein: LASP1,1.073
same,F635,[2]; Protein: SYNCRIP,2264
same,S Score,[2]; Protein: SYNCRIP,0.157
same,Z Score,[2]; Protein: SYNCRIP,6.457
same,F635,[2]; Protein: TRIM33,3231
same,S Score,[2]; Protein: TRIM33,1.539
same,Z Score,[2]; Protein: TRIM33,9.267
"13-5G6-1D3: mouse monoclonal IgG1 kappa antibody against US28 ECD3; VH SEQ ID NO: 12, VL SEQ ID NO: 18 (antibody, V domains shown, Mature form of VH sequence of 1D3, without the leader sequence; Mature form of VL sequence of 1D3, without the leader sequence) VH: EVKLVESGGGLVQPGGSLRLACATSGFTFTDYYMSWVRQPPGKALEWLGFIRSKANGYTTEYSASVKGRFTISRDNSQSILYLQMNTLRSEDSATYYCARDERRTAWLAYWGQGTLVTVSA VL: DVLMTQTPLSLPVSLGDQASISCRSSQSIVHSNGNTYLDWYLQKPGQSPKLLIYKVSNRFSGVPDRFSGSGSGTDFTLKISRVEAEDLGVYYCFQGSHVPTWTFGGGTKLEIK",surface binding to human primary cells,[3],< 1%
same,IHC staining of normal pancreatic tissue,pancreatic tissue; HCMV ISH negative sample,negative staining
same,IHC staining of pancreatic tissue sample from another patient,pancreatic tissue; HCMV ISH positive sample,positive
